The source of these data is patent US20130260458A1, “METHOD OF INDUCING DIFFERENTIATION OF HUMAN PLURIPOTENT STEM CELL INTO HEPATIC PROGENITOR CELL” (NATIONAL UNIVERSITY CORPORATION CHIBA UNIVERSITY, priority 2012, published 2013).

“Also recorded” adds a separate entry of the source.

The subject of experiment [1] is Human iPS cells (201B7). Briefly: Expression of transcription factors in iPS cells cultured with single growth-promoting agents (RT-PCR, electrophoresis). It is filed as cell-based. To be noted: iPS cells in iPSm(−) medium with the growth-promoting agent added; PCR and electrophoresis, FIG. 2. Here is the method:
Reverse transcriptase (Life Technologies Japan Ltd.) was used to synthesize cDNAs of iPS cells, fetal hepatic cells and adult hepatic cells from 3 μg of RNA. The cDNAs were subjected to polymerase chain reaction (PCR) using the following primers to GATA4, FOXA2, HEX, C/EBPα and C/EBPβ, respectively, and to electrophoresis using 2% low-melting agarose (Lonza) and 1×TAE, for investigations on the expression of GATA4, FOXA2, HEX, C/EBPα and C/EBNβ in the iPS cells, fetal hepatic cells and adult hepatic cells.
After electrophoresis, the 2% low-melting agarose was irradiated with ultraviolet rays at 254 nm from a UV transilluminator (UVP LLC, NLMS-20E), and a Polaroid photograph (FUJIFILM Corporation, FP-3000B) thereof was taken with a gel camera (Funakoshi DS-300) to analyze an electrophoretic pattern.
PCR cycles performed included 30 cycles of thermal denaturation: 1 minute at 94° C.; annealing: 1 minute and elongation reaction: 1 minute at 72° C.
Human iPS cells (201B7, RIKEN cell bank) were seeded onto a matrigel-coated 6-well plate, and cultured in a feeder-less medium, ReproFF (trade name, Reprocell Inc.) for culture of stem cells maintained in an undifferentiated state, without using a feeder cell, under conventional conditions: 37° C. and 5% carbon dioxide.
A medium obtained by adding a 20% knock-out serum replacement (Life Technologies Japan Ltd.), 10% Minimum Essential Amino Acids (Life Technologies Japan Ltd.), 2 mM of L-glutamine (Life Technologies Japan Ltd.) and 1 mM of 2-mercaptoethanol to a D-MEM/F12 medium (Dulbecco's Modified Eagle Medium-F12 medium, Sigma-Aldrich Japan) was used as an iPSm(−) medium.
The following growth-promoting agents were added to the iPSm(−) medium, and SOX-17, GATA6, FOXA2, GATA4, HEX, TTR and C/EBPα were expressed in a manner similar to that in Experiment 1.
As the growth-promoting agents, added were bFGF (basic fibroblast growth factor, Wako Pure Chemical Industries, Ltd.), BMP (bone morphogenetic protein)-4 (Wako Pure Chemical Industries, Ltd.), oncostatinM (Wako Pure Chemical Industries, Ltd.), an epidermal growth factor (EGF, Wako Pure Chemical Industries, Ltd.), a nerve growth factor (NGF, R & D Systems, Inc.), TGF-β, (transform growth factor-β, R& D Systems, Inc.), retinoic acid (Sigma-Aldrich Japan) and a hepatic cell growth factor (HGF, Sigma-Aldrich Japan).
RT-PCR to SOX-17, GATA6 and TTR was performed under the following conditions.

The test system of experiment [2] is Human iPS cells (201B7). Briefly: Induction of differentiation into hepatic progenitor cells by growth-promoting agents (real-time quantitative PCR of AFP and DLK-1). It is filed as cell-based. To be noted: iPS cells transfected with FOXA2, GATA4, HEX, C/EBPα three times every three days, 8th day, n=3, ± standard error, ReproFF lane = 100. How it is done: Human iPS cells (201B7, RIKEN cell bank) were seeded onto a matrigel-coated 6-well plate, and cultured in a medium, ReproFF in accordance with a conventional method under the following conditions: 37° C. and 5% carbon dioxide. A lipofection reagent, Lipofectamine LTX (registered trade mark, Life Technologies Japan Ltd.) was used to transfect 0.5 μg of expression plasmids of FOXA2, GATA4, HEX and C/EBPα, respectively. […]
The transfection of the transcription factors was repeated three times every three days, and, on the 8th day, RNA was extracted using Isogen (NIPPON GENE CO., LTD.). […] Then, the amount of expressed α-fetoprotein (AFP), which was an indicator of hepatic progenitor cells, was analyzed by the real-time quantitative PCR method using a real-time PCR analysis reagent, Fast SYBR Green Master Mix (trade name, Life Technologies Japan Ltd.). […] The amounts of α-fetoprotein (AFP) and Delta-like (DLK)-1 expressed were quantitatively determined as an indicator of hepatic progenitor cells by employing ribosome-related protein (RLP19) as internal standard (each group, n=3).
The real-time quantitative PCR was performed by using the following primers through a PCR cycle including 30 cycles of 5 seconds at 95° C. and 20 seconds at 60° C.

B1: epidermal growth factor (protein, UniProt P01133 23-1207, looked up)
Pro-epidermal growth factor: PQHWSCPEGTLAGNGNSTCVGPAPFLIFSHGNSIFRIDTEGTNYEQLVVDAGVSVIMDFHYNEKRIYWVDLERQLLQRVFLNGSRQERVCNIEKNVSGMAINWINEEVIWSNQQEGIITVTDMKGNNSHILLSALKYPANVAVDPVERFIFWSSEVAGSLYRADLDGVGVKALLETSEKITAVSLDVLDKRLFWIQYNREGSNSLICSCDYDGGSVHISKHPTQHNLFAMSLFGDRIFYSTWKMKTIWIANKHTGKDMVRINLHSSFVPLGELKVVHPLAQPKAEDDTWEPEQKLCKLRKGNCSSTVCGQDLQSHLCMCAEGYALSRDRKYCEDVNECAFWNHGCTLGCKNTPGSYYCTCPVGFVLLPDGKRCHQLVSCPRNVSECSHDCVLTSEGPLCFCPEGSVLERDGKTCSGCSSPDNGGCSQLCVPLSPVSWECDCFPGYDLQLDEKSCAASGPQPFLLFANSQDIRHMHFDGTDYGTLLSQQMGMVYALDHDPVENKIYFAHTALKWIERANMDGSQRERLIEEGVDVPEGLAVDWIGRRFYWTDRGKSLIGRSDLNGKRSKIITKENISQPRGIAVHPMAKRLFWTDTGINPRIESSSLQGLGRLVIASSDLIWPSGITIDFLTDKLYWCDAKQSVIEMANLDGSKRRRLTQNDVGHPFAVAVFEDYVWFSDWAMPSVMRVNKRTGKDRVRLQGSMLKPSSLVVVHPLAKPGADPCLYQNGGCEHICKKRLGTAWCSCREGFMKASDGKTCLALDGHQLLAGGEVDLKNQVTPLDILSKTRVSEDNITESQHMLVAEIMVSDQDDCAPVGCSMYARCISEGEDATCQCLKGFAGDGKLCSDIDECEMGVPVCPPASSKCINTEGGYVCRCSEGYQGDGIHCLDIDECQLGEHSCGENASCTNTEGGYTCMCAGRLSEPGLICPDSTPPPHLREDDHHYSVRNSDSECPLSHDGYCLHDGVCMYIEALDKYACNCVVGYIGERCQYRDLKWWELRHAGHGQQQKVIVVAVCVVVLVMLLLLSLWGAHYYRTQKLLSKNPKNPYEESSRDVRSRRPADTEDGMSSCPQPWFVVIKEHQDLKNGGQPVAGEDGQAADGSMQPTSWRQEPQLCGMGTEQGCWIPVSSDKGSCPQVMERSFHMPSYGTQTLEGGVEKPHSLLSANPLWQQRALDPPHQMELTQ
modifications: Pro-epidermal growth factor
notes: growth factor used as growth-promoting agent (Wako Pure Chemical Industries)
B1: in experiment [1], the “expression of C/EBPα” value is on record as “not observed to be expressed”, the “expression of FOXA2” value is recorded as “not observed to be expressed”, the “expression of GATA4” value is on record as “not observed to be expressed” and the “expression of GATA6” value is given as “observed to be expressed”. For the same molecule, the “expression of HEX” value in experiment [1] is “not observed to be expressed”. In addition, the “α-fetoprotein/RPL19 ratio (mRNA expression)” value in experiment [2] (FIG. 3-1) turned out to be 139±13. Moreover, the “DLK-1/RPL19 ratio (mRNA expression)” value in experiment [2] (FIG. 3-2) is given as 59±7.

B2: oncostatin M (protein, UniProt P13725 26-221, looked up)
Oncostatin-M: AAIGSCSKEYRVLLGQLQKQTDLMQDTSRLLDPYIRIQGLDVPKLREHCRERPGAFPSEETLRGLGRRGFLQTLNATLGCVLHRLADLEQRLPKAQDLERSGLNIEDLEKLQMARPNILGLRNNIYCMAQLLDNSDTAEPTKAGRGASQPPTPTPASDAFQRKLEGCRFLHGYHRFMHSVGRVFSKWGESPNRSRR
notes: as for B1
On to B2, for which, in experiment [1], the “expression of C/EBPα” value was “slightly expressed; also recorded: not observed to be expressed”, the “expression of FOXA2” value is on record as “not observed to be expressed”, the “expression of GATA4” value was “not observed to be expressed” and the “expression of HEX” value is recorded as “not observed to be expressed”. In experiment [1], the “expression of SOX-17” value was “observed to be expressed”.
